# B1: LINE1-mini (parent)
# chain: GGCAGAGCUCAACACAGCGUGGCAAAGUGGCUGUGGCUAGACUGCC
# Variants of: B1
# Assay: self-cleavage, relative activity (ratio to wild type); higher = more cleavage; in vitro, sequencing; the parent is a self-cleaving ribozyme
row,Variant,self-cleavage
1,A24C C45U,0.7
2,C8A C42U,0.24
3,C8A G27A,0.17
4,G1C G35U,0.03
5,A25C G35U,0.12
6,A14C A25G,0.07
7,G1A A24C,0.56
8,A14U G22A,0.35
9,U20A A25C,0.61
10,C15G G36U,0.04
11,G33A G36U,0.09
12,C15A C31A,0.05
13,A11U G29A,0.14
14,U9C U38G,0.04
15,U32A G44A,0.23
16,G1A C8G,0.41
17,G29A G36U,0.09
18,U32G G36U,0.1
19,A4G G35C,0.1
20,A24C U34G,0.05
21,A6C U28A,0.64
22,A6U C37U,0.07
23,G29U U34G,0.27
24,G44A,0.44

row,Variant,self-cleavage
1,G36C U43A,0.08
2,U9G G22C,0.1
3,A24C G27C,0.77
4,A26G U38G,0.01
5,C18A G40A,0.05
6,C3U G21U,0.41
7,G1A U28C,0.39
8,A41G C42U,0.11
9,A12G A41C,0.02
10,G19A U38G,0.02
11,G5C C18U,0.03
12,A14G A39C,0.39
13,G5A G17U,0.11
14,U9A G29C,0.05
15,A26U G30C,1.31
16,A4C C46U,0.18
17,G22U G30A,1.49
18,A4G C18G,0.16
19,A16G U43A,0.02
20,A12C A14G,0.04
21,A26U G27A,0.8
22,G5C G30U,0.17
23,A11G C18G,0.02
24,A12U,0.28

row,Variant,self-cleavage
1,C10G G33C,0.02
2,G2U C42A,0.06
3,A6U A14U,0.27
4,U28A G33U,0.16
5,A6C G17C,1.47
6,G5U G44C,0.06
7,A6C A12C,0.06
8,C15U C31G,0.06
9,A14G G35A,0.07
10,C37U C46U,0.06
11,C10A U28G,0.06
12,U28G U43C,0.08
13,A11U U38G,0.01
14,A14U G29A,0.98
15,C42U G44U,0.1
16,C15U U28G,0.31
17,C10U A41C,0.03
18,A14C A39C,0.04
19,C37A G40C,0.2
20,G5C G22A,0.08
21,C3A C45A,0.48
22,A26G G44C,0.28
23,C10U G27U,0.31
24,C23U U34A,0.28

row,Variant,self-cleavage
1,G5C U20C,0.18
2,U20G U32A,0.07
3,A24U G33C,0.06
4,A24U U43A,0.3
5,C13G U38C,0.41
6,C15U G29U,1.42
7,A16U U34G,0.02
8,U9C C18U,0.01
9,G36A G44A,0.43
10,G27C G44U,0.38
11,G30U C31U,0.07
12,G36U C46G,0.08
13,A11C C23A,0.07
14,G7C A14G,0.08
15,G7C A14C,0.23
16,C13A G19C,0.06
17,C31G G44U,0.05
18,A11C C31G,0.01
19,C23U U38A,0.47
20,A14U A25C,0.3
21,C18U U34C,0.07
22,C15G G35A,0.04
23,C13U C42G,0.08
24,A6C C45G,0.09

row,Variant,self-cleavage
1,A14U G17U,0.1
2,A11U G30U,0.18
3,A6U U43A,0.13
4,G30U G35A,0.05
5,G29C C46G,0.52
6,G2U C18U,0.05
7,G2C C8U,0.18
8,G5C G35C,0.06
9,C3A U32C,0.31
10,C10A G30U,0.09
11,G19C G21U,0.47
12,U32A U34A,0.05
13,U20C G21U,0.45
14,G27C C45G,0.32
15,A12G U38A,0.06
16,A6C A39C,0.23
17,C10G U38G,0.03
18,G27A C45A,0.79
19,C13U C46A,0.22
20,U28G G30A,0.9
21,G7A C18G,0.19
22,C10G C23U,0.09
23,C31G C42A,0.05
24,G22C G35A,0.14

row,Variant,self-cleavage
1,U32A C45U,0.07
2,G1A C3U,0.47
3,G5A G21C,0.13
4,C3A A4U,0.38
5,C23A C31G,0.08
6,A12U C45G,0.08
7,C13G U28A,0.28
8,C13A U34A,0.07
9,G1U G36C,0.04
10,G21C G29U,0.48
11,G27U G44C,0.82
12,A4C G40U,0.13
13,U20G A26C,0.47
14,C23A A41U,0.84
15,U9A U34C,0.18
16,C18A C45A,0.24
17,G7A G21C,0.12
18,A12G G22C,0.04
19,U32C C42A,0.12
20,C3A U9C,0.05
21,G30U C42U,0.32
22,G7U C15G,0.09
23,G35A G44C,0.07
24,A14C A41C,0.04

row,Variant,self-cleavage
1,U32A U34C,0.15
2,G17A C18G,0.32
3,C10A G30A,0.1
4,A4G G17C,0.5
5,G5A C23G,0.29
6,G19C A39U,0.28
7,C10U A14C,0.05
8,A14U C18A,0.11
9,G5A U38G,0.02
10,G1U G40A,0.04
11,G7U A12G,0.04
12,A26G G29A,0.36
13,U9C C13G,0.04
14,A12U G21U,0.34
15,A12C C15G,0.03
16,A26U C46G,1.18
17,U32G G33C,0.09
18,G5C,0.07
19,C8A C10U,0.08
20,A11U G19C,0.1
21,A41C U43A,0.11
22,U38A G44C,0.09
23,A16U C46G,0.08

# Reference: the RNAGym collection of RNA variant scans (doi:10.7554/elife.90254)
